Data on 1 substance can be found in patent publication US5656591.

This assay concerns the target commercial lactoferrin just as isolated from cow's milk (cow (bovine)) (UniProt P24627).

Substance “commercial swine pepsin (from UniProt P00791) (enzyme)” gave a hydrolyzing rate of 11.3%.
